# Laboratory results published in IntAct's records for PubMed 36931259.
# B1: 14-3-3 protein sigma (Homo sapiens), P31947 (parent)
# chain: MERASLIQKAKLAEQAERYEDMAAFMKGAVEKGEELSCEERNLLSVAYKNVVGGQRAAWRVLSSIEQKSNEEGSEEKGPEVREYREKVETELQGVCDTVLGLLDSHLIKEAGDAESRVFYLKMKGDYYRYLAEVATGDDKKRIIDSARSAYQEAMDISKKEMPPTNPIRLGLALNFSVFHYEIANSPEEAISLAKTTFDEAMADLHTLSEDSYKDSTLIMQLLRDNLTLWTADNAGEEGGEAPQEPQS
# partner: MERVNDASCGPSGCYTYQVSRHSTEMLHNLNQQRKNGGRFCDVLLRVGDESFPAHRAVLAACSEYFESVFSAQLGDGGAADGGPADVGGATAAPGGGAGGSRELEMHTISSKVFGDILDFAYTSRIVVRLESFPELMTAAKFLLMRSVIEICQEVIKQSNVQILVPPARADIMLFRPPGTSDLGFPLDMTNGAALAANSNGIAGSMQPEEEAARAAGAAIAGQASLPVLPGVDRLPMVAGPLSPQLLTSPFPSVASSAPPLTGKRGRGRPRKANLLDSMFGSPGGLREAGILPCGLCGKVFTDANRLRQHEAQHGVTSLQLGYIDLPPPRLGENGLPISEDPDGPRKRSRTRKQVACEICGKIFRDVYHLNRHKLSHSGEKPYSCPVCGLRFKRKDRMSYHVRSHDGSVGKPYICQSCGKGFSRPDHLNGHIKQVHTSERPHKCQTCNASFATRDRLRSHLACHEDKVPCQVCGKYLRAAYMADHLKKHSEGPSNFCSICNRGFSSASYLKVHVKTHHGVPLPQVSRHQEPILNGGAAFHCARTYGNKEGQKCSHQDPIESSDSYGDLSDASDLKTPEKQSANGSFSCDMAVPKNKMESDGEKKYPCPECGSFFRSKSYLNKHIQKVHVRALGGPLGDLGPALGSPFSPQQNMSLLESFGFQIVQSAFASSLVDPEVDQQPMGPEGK
# B2: 14-3-3 protein sigma (Homo sapiens), P31947 (parent)
# chain: B1 chain
# partner: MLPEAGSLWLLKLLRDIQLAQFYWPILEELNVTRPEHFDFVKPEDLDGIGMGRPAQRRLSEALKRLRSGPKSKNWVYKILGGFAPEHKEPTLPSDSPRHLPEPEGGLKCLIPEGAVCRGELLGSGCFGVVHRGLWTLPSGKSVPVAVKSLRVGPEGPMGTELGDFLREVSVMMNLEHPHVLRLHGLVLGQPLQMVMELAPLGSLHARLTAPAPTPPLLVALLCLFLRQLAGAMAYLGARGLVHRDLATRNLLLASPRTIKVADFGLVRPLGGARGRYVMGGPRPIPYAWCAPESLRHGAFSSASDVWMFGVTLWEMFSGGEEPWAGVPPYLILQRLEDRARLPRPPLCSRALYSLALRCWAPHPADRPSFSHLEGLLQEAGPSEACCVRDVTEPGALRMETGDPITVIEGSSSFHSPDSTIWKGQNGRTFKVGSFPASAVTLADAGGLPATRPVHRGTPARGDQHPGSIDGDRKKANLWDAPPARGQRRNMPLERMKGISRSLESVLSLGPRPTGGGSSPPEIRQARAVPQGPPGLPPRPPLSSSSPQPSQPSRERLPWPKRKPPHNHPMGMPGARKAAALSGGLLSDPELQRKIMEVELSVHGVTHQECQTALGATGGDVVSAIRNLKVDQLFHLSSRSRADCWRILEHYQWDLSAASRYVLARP
# B3: 14-3-3 protein sigma (Homo sapiens), P31947 (parent)
# chain: B1 chain
# partner: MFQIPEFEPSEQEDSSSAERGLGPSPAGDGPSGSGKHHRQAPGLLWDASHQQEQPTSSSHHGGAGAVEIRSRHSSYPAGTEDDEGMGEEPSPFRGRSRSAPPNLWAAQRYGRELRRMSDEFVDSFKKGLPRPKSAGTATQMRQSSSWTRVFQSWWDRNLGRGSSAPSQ
# B4: 14-3-3 protein sigma (Homo sapiens), P31947 (parent)
# chain: B1 chain
# partner: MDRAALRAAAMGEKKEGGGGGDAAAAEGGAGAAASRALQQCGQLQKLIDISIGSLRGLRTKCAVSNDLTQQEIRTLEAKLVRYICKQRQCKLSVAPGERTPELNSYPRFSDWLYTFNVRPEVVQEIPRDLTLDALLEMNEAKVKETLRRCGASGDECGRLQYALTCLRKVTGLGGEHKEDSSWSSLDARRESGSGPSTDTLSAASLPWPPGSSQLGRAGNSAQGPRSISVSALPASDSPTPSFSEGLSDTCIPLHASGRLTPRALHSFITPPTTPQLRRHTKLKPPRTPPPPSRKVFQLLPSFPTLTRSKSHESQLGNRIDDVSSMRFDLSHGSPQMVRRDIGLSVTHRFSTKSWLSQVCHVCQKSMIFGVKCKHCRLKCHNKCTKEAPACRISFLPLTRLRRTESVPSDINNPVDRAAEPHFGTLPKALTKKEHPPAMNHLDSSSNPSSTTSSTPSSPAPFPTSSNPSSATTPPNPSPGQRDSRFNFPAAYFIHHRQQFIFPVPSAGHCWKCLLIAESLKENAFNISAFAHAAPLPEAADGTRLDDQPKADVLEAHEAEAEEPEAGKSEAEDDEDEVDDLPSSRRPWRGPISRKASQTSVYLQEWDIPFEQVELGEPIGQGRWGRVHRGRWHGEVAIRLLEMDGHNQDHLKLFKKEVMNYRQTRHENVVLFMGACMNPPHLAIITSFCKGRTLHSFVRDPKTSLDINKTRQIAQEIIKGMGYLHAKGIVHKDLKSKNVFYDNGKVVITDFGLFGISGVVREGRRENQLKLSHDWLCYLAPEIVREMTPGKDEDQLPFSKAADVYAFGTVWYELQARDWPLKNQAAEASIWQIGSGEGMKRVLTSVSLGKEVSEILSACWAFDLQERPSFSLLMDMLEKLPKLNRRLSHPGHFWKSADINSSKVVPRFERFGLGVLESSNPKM
# B5: 14-3-3 protein sigma (Homo sapiens), P31947 (parent)
# chain: B1 chain
# partner: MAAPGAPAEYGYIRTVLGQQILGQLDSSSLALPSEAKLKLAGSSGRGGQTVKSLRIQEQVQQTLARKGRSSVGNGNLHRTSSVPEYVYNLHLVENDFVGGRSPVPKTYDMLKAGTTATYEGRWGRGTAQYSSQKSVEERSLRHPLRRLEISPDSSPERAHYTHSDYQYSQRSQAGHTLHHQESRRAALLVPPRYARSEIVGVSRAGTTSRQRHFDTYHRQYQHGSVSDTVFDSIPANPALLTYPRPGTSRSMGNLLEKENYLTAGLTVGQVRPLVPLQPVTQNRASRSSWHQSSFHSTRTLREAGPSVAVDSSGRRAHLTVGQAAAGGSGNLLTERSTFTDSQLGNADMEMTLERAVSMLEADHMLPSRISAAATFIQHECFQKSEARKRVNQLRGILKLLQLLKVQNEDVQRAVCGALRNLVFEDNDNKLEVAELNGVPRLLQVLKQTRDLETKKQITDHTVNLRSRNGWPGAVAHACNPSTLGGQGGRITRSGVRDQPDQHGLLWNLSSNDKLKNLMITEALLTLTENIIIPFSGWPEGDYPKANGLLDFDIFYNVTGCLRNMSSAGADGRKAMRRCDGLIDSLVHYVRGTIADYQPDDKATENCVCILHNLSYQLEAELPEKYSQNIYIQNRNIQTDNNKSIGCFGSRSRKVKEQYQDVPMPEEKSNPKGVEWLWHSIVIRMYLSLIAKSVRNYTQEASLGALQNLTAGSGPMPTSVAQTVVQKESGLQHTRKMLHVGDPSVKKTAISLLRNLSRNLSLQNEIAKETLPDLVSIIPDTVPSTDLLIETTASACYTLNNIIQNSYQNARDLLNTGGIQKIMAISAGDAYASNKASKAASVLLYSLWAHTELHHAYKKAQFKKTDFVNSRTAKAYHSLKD
# B6: 14-3-3 protein sigma (Homo sapiens), P31947 (parent)
# chain: B1 chain
# partner: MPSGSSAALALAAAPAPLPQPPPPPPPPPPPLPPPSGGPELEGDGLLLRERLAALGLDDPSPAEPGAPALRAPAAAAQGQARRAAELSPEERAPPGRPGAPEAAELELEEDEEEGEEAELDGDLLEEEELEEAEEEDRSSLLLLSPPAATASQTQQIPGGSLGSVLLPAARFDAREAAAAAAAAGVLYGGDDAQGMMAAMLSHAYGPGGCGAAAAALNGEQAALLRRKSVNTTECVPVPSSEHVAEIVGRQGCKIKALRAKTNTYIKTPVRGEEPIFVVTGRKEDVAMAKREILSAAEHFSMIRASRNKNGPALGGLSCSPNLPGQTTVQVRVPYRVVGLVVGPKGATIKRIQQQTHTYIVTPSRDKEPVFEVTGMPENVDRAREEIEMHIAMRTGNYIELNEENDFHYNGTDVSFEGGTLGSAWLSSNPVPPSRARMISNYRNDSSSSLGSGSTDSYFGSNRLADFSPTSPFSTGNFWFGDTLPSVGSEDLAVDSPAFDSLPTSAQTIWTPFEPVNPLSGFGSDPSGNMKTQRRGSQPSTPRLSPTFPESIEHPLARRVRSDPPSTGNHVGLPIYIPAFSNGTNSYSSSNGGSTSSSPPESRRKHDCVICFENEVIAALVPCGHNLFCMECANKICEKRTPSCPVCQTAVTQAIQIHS
# B7: 14-3-3 protein sigma (Homo sapiens), P31947 (parent)
# chain: B1 chain
# partner: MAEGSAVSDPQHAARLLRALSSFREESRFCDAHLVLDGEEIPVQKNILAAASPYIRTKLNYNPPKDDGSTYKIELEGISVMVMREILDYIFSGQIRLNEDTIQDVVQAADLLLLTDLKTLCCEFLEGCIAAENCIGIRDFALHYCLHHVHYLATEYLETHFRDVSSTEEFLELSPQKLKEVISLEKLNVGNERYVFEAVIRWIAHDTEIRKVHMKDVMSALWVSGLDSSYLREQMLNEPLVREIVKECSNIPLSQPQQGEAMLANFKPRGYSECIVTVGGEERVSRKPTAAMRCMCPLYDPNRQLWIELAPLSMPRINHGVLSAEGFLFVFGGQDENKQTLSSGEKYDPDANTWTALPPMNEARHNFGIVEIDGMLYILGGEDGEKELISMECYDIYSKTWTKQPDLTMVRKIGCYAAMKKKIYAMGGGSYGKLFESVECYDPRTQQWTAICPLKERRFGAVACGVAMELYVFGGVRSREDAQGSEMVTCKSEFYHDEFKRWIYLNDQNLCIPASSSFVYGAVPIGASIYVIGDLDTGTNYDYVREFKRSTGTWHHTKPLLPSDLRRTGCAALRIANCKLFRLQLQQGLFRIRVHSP
# B8: 14-3-3 protein sigma (Homo sapiens), P31947 (parent)
# chain: B1 chain
# partner: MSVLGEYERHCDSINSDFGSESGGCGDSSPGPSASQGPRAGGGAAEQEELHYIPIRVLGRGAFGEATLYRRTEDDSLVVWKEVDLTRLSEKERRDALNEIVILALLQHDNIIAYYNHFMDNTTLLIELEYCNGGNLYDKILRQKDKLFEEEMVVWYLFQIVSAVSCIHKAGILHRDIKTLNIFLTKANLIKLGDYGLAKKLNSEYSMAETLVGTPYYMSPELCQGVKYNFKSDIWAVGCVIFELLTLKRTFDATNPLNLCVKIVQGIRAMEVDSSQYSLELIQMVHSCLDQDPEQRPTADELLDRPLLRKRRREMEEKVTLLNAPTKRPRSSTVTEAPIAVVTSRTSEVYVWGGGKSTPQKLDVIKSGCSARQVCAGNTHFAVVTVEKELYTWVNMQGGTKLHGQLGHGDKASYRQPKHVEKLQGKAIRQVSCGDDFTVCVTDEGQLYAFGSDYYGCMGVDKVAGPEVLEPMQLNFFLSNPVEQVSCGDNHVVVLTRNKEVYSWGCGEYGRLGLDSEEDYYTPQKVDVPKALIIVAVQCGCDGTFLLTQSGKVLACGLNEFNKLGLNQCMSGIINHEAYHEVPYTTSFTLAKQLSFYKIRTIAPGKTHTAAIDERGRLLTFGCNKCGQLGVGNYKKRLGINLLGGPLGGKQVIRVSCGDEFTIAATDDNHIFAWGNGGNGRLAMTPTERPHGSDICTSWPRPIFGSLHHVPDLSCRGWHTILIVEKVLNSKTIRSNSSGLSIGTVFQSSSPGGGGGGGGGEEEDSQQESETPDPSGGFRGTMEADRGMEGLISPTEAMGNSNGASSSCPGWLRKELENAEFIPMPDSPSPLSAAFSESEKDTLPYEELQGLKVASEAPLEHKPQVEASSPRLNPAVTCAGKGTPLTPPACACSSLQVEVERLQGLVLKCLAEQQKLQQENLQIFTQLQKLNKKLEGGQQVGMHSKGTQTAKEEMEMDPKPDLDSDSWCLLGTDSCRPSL
# Variants of: B1
# Details: with patz1_human PATZ1, Q9HBE1
row,Variant,effect of a mutation on the interaction
1,K49E;R56E;V178D,decreasing interaction strength

# Variants of: B2
# Details: with tnk1_human TNK1, Q13470
row,Variant,effect of a mutation on the interaction
1,K49E;R56E;V178D,decreasing interaction strength

# Variants of: B3
# Details: with bad_human BAD
row,Variant,effect of a mutation on the interaction
1,K49E;R56E;V178D,decreasing interaction strength

# Variants of: B4
# Details: with ksr1_human KSR1, Q8IVT5
row,Variant,effect of a mutation on the interaction
1,K49E;R56E;V178D,decreasing interaction strength

# Variants of: B5
# Details: with pkp2_human PKP2, Q99959
row,Variant,effect of a mutation on the interaction
1,K49E;R56E;V178D,decreasing interaction strength

# Variants of: B6
# Details: with mex3c_human MEX3C
row,Variant,effect of a mutation on the interaction
1,K49E;R56E;V178D,decreasing interaction strength

# Variants of: B7
# Details: with gan_human GAN
row,Variant,effect of a mutation on the interaction
1,K49E;R56E;V178D,decreasing interaction strength

# Variants of: B8
# Details: with nek9_human NEK9, Q8TD19
row,Variant,effect of a mutation on the interaction
1,K49E;R56E;V178D,decreasing interaction strength
